Assay results reported in US20060216236A1 (published 2006).

Biological target: integrin αvβ3 on human tumor cells (ECV304 bladder carcinoma, M21 melanoma) (human, UniProt P06756 31-1048; P05106 27-788)
Assay: cell-based or functional assay

Sequence of integrin αvβ3 on human tumor cells (ECV304 bladder carcinoma, M21 melanoma) (P06756 31-1048, chain 1 of 2): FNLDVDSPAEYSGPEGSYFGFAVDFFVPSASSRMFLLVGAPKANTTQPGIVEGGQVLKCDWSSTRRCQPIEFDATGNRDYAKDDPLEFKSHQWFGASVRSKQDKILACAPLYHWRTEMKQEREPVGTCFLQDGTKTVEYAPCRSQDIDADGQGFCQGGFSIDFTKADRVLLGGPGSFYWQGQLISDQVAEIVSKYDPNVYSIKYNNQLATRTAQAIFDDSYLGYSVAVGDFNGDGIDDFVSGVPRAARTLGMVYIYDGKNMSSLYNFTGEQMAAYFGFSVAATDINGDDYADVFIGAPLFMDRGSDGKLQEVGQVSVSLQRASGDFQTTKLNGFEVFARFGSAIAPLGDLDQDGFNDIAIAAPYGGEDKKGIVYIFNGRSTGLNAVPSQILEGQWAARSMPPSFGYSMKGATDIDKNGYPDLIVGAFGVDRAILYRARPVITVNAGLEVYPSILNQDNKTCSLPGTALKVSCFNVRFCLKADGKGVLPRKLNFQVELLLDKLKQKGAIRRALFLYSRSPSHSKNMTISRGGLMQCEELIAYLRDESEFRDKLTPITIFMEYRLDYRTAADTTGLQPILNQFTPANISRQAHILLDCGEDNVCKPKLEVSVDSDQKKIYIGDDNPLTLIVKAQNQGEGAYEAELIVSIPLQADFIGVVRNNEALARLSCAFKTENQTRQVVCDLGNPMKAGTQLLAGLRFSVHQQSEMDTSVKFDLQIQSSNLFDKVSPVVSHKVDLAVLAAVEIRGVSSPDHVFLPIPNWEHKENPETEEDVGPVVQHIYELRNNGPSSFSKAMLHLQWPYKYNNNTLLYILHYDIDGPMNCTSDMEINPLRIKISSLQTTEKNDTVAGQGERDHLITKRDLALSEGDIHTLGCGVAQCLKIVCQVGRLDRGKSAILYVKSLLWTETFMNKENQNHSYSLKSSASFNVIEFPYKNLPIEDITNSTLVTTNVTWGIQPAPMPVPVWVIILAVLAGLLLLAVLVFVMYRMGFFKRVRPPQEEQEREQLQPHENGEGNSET
Sequence of integrin αvβ3 on human tumor cells (ECV304 bladder carcinoma, M21 melanoma) (P05106 27-788, chain 2 of 2): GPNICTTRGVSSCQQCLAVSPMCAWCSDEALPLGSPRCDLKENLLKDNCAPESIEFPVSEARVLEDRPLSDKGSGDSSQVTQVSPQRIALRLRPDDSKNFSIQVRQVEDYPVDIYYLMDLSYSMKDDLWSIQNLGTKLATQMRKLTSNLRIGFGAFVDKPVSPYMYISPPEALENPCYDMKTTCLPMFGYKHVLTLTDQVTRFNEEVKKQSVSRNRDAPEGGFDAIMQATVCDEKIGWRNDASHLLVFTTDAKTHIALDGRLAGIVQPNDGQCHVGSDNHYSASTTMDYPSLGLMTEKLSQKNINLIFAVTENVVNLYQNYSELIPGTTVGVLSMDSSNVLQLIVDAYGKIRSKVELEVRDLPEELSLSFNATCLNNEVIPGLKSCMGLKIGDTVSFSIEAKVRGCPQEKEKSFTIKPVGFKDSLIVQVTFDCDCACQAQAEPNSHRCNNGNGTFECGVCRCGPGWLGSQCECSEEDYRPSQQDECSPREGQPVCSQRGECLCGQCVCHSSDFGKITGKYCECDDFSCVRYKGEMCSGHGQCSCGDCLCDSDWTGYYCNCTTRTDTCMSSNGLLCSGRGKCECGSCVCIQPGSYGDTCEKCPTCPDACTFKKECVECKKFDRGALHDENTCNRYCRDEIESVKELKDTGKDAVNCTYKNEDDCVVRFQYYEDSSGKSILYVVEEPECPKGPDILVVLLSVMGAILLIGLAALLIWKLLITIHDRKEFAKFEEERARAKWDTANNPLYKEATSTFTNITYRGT

- relative level of IGFBP-4 RNA (real time PCR) in M21 cells on denatured collagen type-IV: ~8 fold
- relative level of TSP-1 RNA (real time PCR) in M21 cells on denatured collagen type-IV: ~8 fold
B1: Mab LM609 (anti-αvβ3) (antibody, V domains shown)
VH: EVQLVESGGGLVKPGRSLRLSCAASGFAFSSYDMSWVRQIPEKRLEWVAKVSSGGGSTYYLDTVQGRFTISRDNAKNTLYLQMSSLNSEDTAMYYCARHNYGSFAYWGQGTLVTVSA
VL: DIVLTQSPATLSVTPGDSVSLSCQASQSISNHLHWYQQKSHESPRLLIKYRSQSISGIPSRFSGSGSGTDFALSINSVETEDFGMYFCQQSGSWPHTFGGGTKLEIK
